Measured values from paper PMC10715038 (Microbiology Spectrum, 2023).

Legend:
[1] = molecular target: T1, SARS-CoV-2 WHU01 Spike RBD, monomeric (SARS-CoV-2, UniProt P0DTC2); assay: SPR; details: both partners purified
T1 construct: not shown: Fc (human IgG1), C-terminal, cleaved

[2] = molecular target: T1, SARS-CoV-2 WHU01 Spike RBD, monomeric; assay: SPR; details: both partners purified; remark: listed apart in the source

B1: Rhinolophus sinicus bat ACE2-huFc (soluble bat ACE2 ectodomain, human IgG1 Fc fusion) (Fc fusion)
chain: QSTTEDEAKMFLDKFNTKAEDLSHQSSLASWDYNTNINDENVQKMDEAGAKWSAFYEEQSKLAKNYSLEQIQNVTVKLQLQILQQSGSPVLSEDKSKRLNSILNAMSTIYSTGKVCKPNKPQECLLLEPGLDNIMGTSKDYNERLWAWEGWRAEVGKQLRPLYEEYVVLKNEMARGYHYEDYGDYWRRDYETEESPGPGYSRDQLMKDVERIFTEIKPLYEHLHAYVRAKLMDTYPFHISPTGCLPAHLLGDMWGRFWTNLYPLTVPFGQKPNIDVTDEMLKQGWDADRIFKEAEKFFVSVGLPNMTEGFWNNSMLTEPGDGRKVVCHPTAWDLGKGDFRIKMCTKVTMEDFLTAHHEMGHIQYDMAYASQPYLLRNGANEGFHEAVGEVMSLSVATPKHLKTMGLLSPDFREDNETEINFLLKQALNIVGTLPFTYMLEKWRWMVFKGEIPKEEWMKKWWEMKRKIVGVVEPVPHDETYCDPASLFHVANDYSFIRYYTRTIFEFQFHEALCRIAQHDGPLHKCDISNSTDAGKKLHQMLSVGKSQAWTKTLEDIVDSRNMDVGPLLKYFEPLYTWLQEQNRKSYVGWNTDWSPYSDQSIKVRISLKSALGENAYEWNDNEMYLFRSSVAYAMREYFLKEKHQTILFGAENVWVSNLKPRISFNFHVTSPGNLSDIIPRPEVEGAIRMSRSRINDAFRLDDNSLEFLGIQPTLGPPYQPPVT
Kd [1]: 1.92 µM
koff [1]: 0.0377 s⁻¹
kon [1]: 20000 M⁻¹ s⁻¹
Kd [2]: 1.14 µM
koff [2]: 0.0343 s⁻¹
kon [2]: 30000 M⁻¹ s⁻¹

B2: Pig ACE2-huFc (soluble pig ACE2 ectodomain, human IgG1 Fc fusion) (Fc fusion)
chain: QSTTEELAKTFLEKFNLEAEDLAYQSSLASWNYNTNITDENIQKMNDARAKWSAFYEEQSRIAKTYPLDEIQTLILKRQLQALQQSGTSGLSADKSKRLNTILNTMSTIYSSGKVLDPNNPQECLVLEPGLDEIMENSKDYSRRLWAWESWRAEVGKQLRPLYEEYVVLENEMARANNYEDYGDYWRGDYEVTGTGDYDYSRNQLMEDVERTFAEIKPLYEHLHAYVRAKLMDAYPSRISPTGCLPAHLLGDMWGRFWTNLYPLTVPFGEKPSIDVTEAMVNQSWDAIRIFEEAEKFFVSIGLPNMTQGFWNNSMLTEPGDGRKVVCHPTAWDLGKGDFRIKMCTKVTMDDFLTAHHEMGHIQYDMAYAIQPYLLRNGANEGFHEAVGEIMSLSAATPHYLKALGLLPPDFYEDSETEINFLLKQALTIVGTLPFTYMLEKWRWMVFKGEIPKEQWMQKWWEMKREIVGVVEPLPHDETYCDPACLFHVAEDYSFIRYYTRTIYQFQFHEALCRTAKHEGPLYKCDISNSTEAGQKLLQMLSLGKSEPWTLALENIVGVKTMDVKPLLSYFEPLLTWLKAQNGNSSVGWNTDWTPYADQSIKVRISLKSALGKEAYEWNDNEMYLFRSSIAYAMRNYFSSAKNETIPFGAEDVWVSDLKPRISFNFFVTSPANMSDIIPRSDVEKAISMSRSRINDAFRLDDNTLEFLGIQPTLGPPDEPPVT
Kd [1]: 1 µM
koff [1]: 0.0395 s⁻¹
kon [1]: 40000 M⁻¹ s⁻¹
Kd [2]: 1.14 µM
koff [2]: 0.1 s⁻¹
kon [2]: 87000 M⁻¹ s⁻¹
